# B1: LHFPL tetraspan subfamily member 5 protein (Homo sapiens), Q8TAF8 (parent)
# chain: MVKLLPAQEAAKIYHTNYVRNSRAVGVMWGTLTICFSVLVMALFIQPYWIGDSVNTPQAGYFGLFSYCVGNVLSSELICKGGPLDFSSIPSRAFKTAMFFVALGMFLIIGSIICFSLFFICNTATVYKICAWMQLAAATGLMIGCLVYPDGWDSSEVRRMCGEQTGKYTLGHCTIRWAFMLAILSIGDALILSFLAFVLGYRQDKLLPDDYKADGTEEV
# partner: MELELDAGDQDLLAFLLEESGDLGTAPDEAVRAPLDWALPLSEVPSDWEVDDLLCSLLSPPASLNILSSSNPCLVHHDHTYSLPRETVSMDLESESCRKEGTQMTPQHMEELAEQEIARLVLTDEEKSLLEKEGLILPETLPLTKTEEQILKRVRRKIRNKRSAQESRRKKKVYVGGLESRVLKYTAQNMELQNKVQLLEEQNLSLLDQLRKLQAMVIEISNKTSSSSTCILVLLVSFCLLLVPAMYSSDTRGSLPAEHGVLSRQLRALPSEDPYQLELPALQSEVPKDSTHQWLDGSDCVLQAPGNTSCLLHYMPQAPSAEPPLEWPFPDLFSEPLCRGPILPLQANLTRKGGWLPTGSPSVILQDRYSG
# B2: F-box/WD repeat-containing protein 1A (Homo sapiens), Q9Y297 (parent)
# chain: MDPAEAVLQEKALKFMCSMPRSLWLGCSSLADSMPSLRCLYNPGTGALTAFQNSSEREDCNNGEPPRKIIPEKNSLRQTYNSCARLCLNQETVCLASTAMKTENCVAKTKLANGTSSMIVPKQRKLSASYEKEKELCVKYFEQWSESDQVEFVEHLISQMCHYQHGHINSYLKPMLQRDFITALPARGLDHIAENILSYLDAKSLCAAELVCKEWYRVTSDGMLWKKLIERMVRTDSLWRGLAERRGWGQYLFKNKPPDGNAPPNSFYRALYPKIIQDIETIESNWRCGRHSLQRIHCRSETSKGVYCLQYDDQKIVSGLRDNTIKIWDKNTLECKRILTGHTGSVLCLQYDERVIITGSSDSTVRVWDVNTGEMLNTLIHHCEAVLHLRFNNGMMVTCSKDRSIAVWDMASPTDITLRRVLVGHRAAVNVVDFDDKYIVSASGDRTIKVWNTSTCEFVRTLNGHKRGIACLQYRDRLVVSGSSDNTIRLWDIECGACLRVLEGHEELVRCIRFDNKRIVSGAYDGKIKVWDLVAALDPRAPAGTLCLRTLVEHSGRVFRLQFDEFQIVSSSHDDTILIWDFLNDPAAQAEPPRSPSRTYTYISR
# B3: cGMP-dependent protein kinase 1 (Homo sapiens), Q13976 (parent)
# chain: MSELEEDFAKILMLKEERIKELEKRLSEKEEEIQELKRKLHKCQSVLPVPSTHIGPRTTRAQGISAEPQTYRSFHDLRQAFRKFTKSERSKDLIKEAILDNDFMKNLELSQIQEIVDCMYPVEYGKDSCIIKEGDVGSLVYVMEDGKVEVTKEGVKLCTMGPGKVFGELAILYNCTRTATVKTLVNVKLWAIDRQCFQTIMMRTGLIKHTEYMEFLKSVPTFQSLPEEILSKLADVLEETHYENGEYIIRQGARGDTFFIISKGTVNVTREDSPSEDPVFLRTLGKGDWFGEKALQGEDVRTANVIAAEAVTCLVIDRDSFKHLIGGLDDVSNKAYEDAEAKAKYEAEAAFFANLKLSDFNIIDTLGVGGFGRVELVQLKSEESKTFAMKILKKRHIVDTRQQEHIRSEKQIMQGAHSDFIVRLYRTFKDSKYLYMLMEACLGGELWTILRDRGSFEDSTTRFYTACVVEAFAYLHSKGIIYRDLKPENLILDHRGYAKLVDFGFAKKIGFGKKTWTFCGTPEYVAPEIILNKGHDISADYWSLGILMYELLTGSPPFSGPDPMKTYNIILRGIDMIEFPKKIAKNAANLIKKLCRDNPSERLGNLKNGVKDIQKHKWFEGFNWEGLRKGTLTPPIIPSVASPTDTSNFDSFPEDNDEPPPDDNSGWDIDF
# B4: Isoform 6 of F-box only protein 11 (Homo sapiens), Q86XK2-6 (parent)
# chain: MVAEESGPGAQNSPYQLRRKTLLPKRTACPTKNSMEGASTSTTENFGHRAKRARVSGKSQDLSAAPAEQYLQEKLPDEVVLKIFSYLLEQDLCRAACVCKRFSELANDPILWKRLYMEVFEYTRPMMHPEPGKFYQINPEEYEHPNPWKESFQQLYKGAHVKPGFAEHFYSNPARYKGRENMLYYDTIEDALGGVQEAHFDGLIFVHSGIYTDEWIYIESPITMIGAAPGKVADKVIIENTRDSTFVFMEGSEDAYVGYMTIRFNPDDKSAQHHNAHHCLEITVNCSPIIDHCIIRSTCTVGSAVCVSGQGACPTIKHCNISDCENVGLYITDHAQGIYEDNEISNNALAGIWVKNHGNPIIRRNHIHHGRDVGVFTFDHGMGYFESCNIHRNRIAGFEVKAYANPTVVRCEIHHGQTGGIYVHEKGRGQFIENKIYANNFAGVWITSNSDPTIRGNSIFNGNQGGVYIFGDGRGLIEGNDIYGNALAGIQIRTNSCPIVRHNKIHDGQHGGIYVHEKGQGVIEENEVYSNTLAGVWVTTGSTPVLRRNRIHSGKQVGVYFYDNGHGVLEDNDIYNHMYSGVQIRTGSNPKIRRNKIWGGQNGGILVYNSGLGCIEDNEIFDNAMAGVWIKTDSNPTLRRNKIHDGRDGGICIFNGGRGLLEENDIFRNAQAGVLISTNSHPILRKNRIFDGFAAGIEITNHATATLEGNQIFNNRFGGLFLASGVNVTMKDNKIMNNQDAIEKAVSRGQCLYKISSYTSYPMHDFYRCHTCNTTDRNAICVNCIKKCHQGHDVEFIRHDRFFCDCGAGTLSNPCTLAGEPTHDTDTLYDSAPPIESNTLQHN
# B5: Embryonal Fyn-associated substrate (Homo sapiens), O43281 (parent)
# chain: MAIATSTQLARALYDNTAESPQELSFRRGDVLRVLQREGAGGLDGWCLCSLHGQQGIVPANRVKLLPAGPAPKPSLSPASPAQPGSPYPAPDHSNEDQEVYVVPPPARPCPTSGPPAGPCPPSPDLIYKIPRASGTQLAAPRDALEVYDVPPTALRVPSSGPYDCPASFSHPLTRVAPQPPGEDDAPYDVPLTPKPPAELEPDLEWEGGREPGPPIYAAPSNLKRASALLNLYEAPEELLADGEGGGTDEGIYDVPLLGPEAPPSPEPPGALASHDQDTLAQLLARSPPPPHRPRLPSAESLSRRPLPALPVPEAPSPSPVPSPAPGRKGSIQDRPLPPPPPRLPGYGGPKVEGDPEGREMEDDPAGHHNEYEGIPMAEEYDYVHLKGMDKAQGSRPPDQACTGDPELPERGMPAPQEALSPGEPLVVSTGDLQLLYFYAGQCQSHYSALQAAVAALMSSTQANQPPRLFVPHSKRVVVAAHRLVFVGDTLGRLAASAPLRAQVRAAGTALGQALRATVLAVKGAALGYPSSPAIQEMVQCVTELAGQALQFTTLLTSLAP
# B6: U6 snRNA-associated Sm-like protein LSm7 (Homo sapiens), Q9UK45 (parent)
# chain: MADKEKKKKESILDLSKYIDKTIRVKFQGGREASGILKGFDPLLNLVLDGTIEYMRDPDDQYKLTEDTRQLGLVVCRGTSVVLICPQDGMEAIPNPFIQQQDA
# B7: Mediator of RNA polymerase II transcription subunit 18 (Homo sapiens), Q9BUE0 (parent)
# chain: MEAPPVTMMPVTGGTINMMEYLLQGSVLDHSLESLIHRLRGLCDNMEPETFLDHEMVFLLKGQQASPFVLRARRSMDRAGAPWHLRYLGQPEMGDKNRHALVRNCVDIATSENLTDFLMEMGFRMDHEFVAKGHLFRKGIMKIMVYKIFRILVPGNTDSTEALSLSYLVELSVVAPAGQDMVSDDMKNFAEQLKPLVHLEKIDPKRLM
# partner: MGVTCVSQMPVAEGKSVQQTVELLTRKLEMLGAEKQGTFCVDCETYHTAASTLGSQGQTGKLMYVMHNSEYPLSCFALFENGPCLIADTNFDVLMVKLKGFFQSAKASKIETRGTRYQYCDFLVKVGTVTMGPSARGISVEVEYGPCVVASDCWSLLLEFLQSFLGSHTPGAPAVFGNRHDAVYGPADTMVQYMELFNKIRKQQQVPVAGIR
# B8: Isoform 1 of Equilibrative nucleoside transporter 1 (Homo sapiens), Q99808-1 (parent)
# chain: MTTSHQPQDRYKAVWLIFFMLGLGTLLPWNFFMTATQYFTNRLDMSQNVSLVTAELSKDAQASAAPAAPLPERNSLSAIFNNVMTLCAMLPLLLFTYLNSFLHQRIPQSVRILGSLVAILLVFLITAILVKVQLDALPFFVITMIKIVLINSFGAILQGSLFGLAGLLPASYTAPIMSGQGLAGFFASVAMICAIASGSELSESAFGYFITACAVIILTIICYLGLPRLEFYRYYQQLKLEGPGEQETKLDLISKGEEPRAGKEESGVSVSNSQPTNESHSIKAILKNISVLAFSVCFIFTITIGMFPAVTVEVKSSIAGSSTWERYFIPVSCFLTFNIFDWLGRSLTAVFMWPGKDSRWLPSLVLARLVFVPLLLLCNIKPRRYLTVVFEHDAWFIFFMAAFAFSNGYLASLCMCFGPKKVKPAEAETAGAIMAFFLCLGLALGAVFSFLFRAIV
# partner: B1 partner
# Variants of: B1
# Details: with creb3_human CREB3, O43889
row,effect of a mutation on the interaction,Variant
1,with no effect,K205N

# Variants of: B2
# Details: with tacc1_human TACC1, O75410
# Chain of tacc1_human TACC1, O75410 (O75410 whole entry): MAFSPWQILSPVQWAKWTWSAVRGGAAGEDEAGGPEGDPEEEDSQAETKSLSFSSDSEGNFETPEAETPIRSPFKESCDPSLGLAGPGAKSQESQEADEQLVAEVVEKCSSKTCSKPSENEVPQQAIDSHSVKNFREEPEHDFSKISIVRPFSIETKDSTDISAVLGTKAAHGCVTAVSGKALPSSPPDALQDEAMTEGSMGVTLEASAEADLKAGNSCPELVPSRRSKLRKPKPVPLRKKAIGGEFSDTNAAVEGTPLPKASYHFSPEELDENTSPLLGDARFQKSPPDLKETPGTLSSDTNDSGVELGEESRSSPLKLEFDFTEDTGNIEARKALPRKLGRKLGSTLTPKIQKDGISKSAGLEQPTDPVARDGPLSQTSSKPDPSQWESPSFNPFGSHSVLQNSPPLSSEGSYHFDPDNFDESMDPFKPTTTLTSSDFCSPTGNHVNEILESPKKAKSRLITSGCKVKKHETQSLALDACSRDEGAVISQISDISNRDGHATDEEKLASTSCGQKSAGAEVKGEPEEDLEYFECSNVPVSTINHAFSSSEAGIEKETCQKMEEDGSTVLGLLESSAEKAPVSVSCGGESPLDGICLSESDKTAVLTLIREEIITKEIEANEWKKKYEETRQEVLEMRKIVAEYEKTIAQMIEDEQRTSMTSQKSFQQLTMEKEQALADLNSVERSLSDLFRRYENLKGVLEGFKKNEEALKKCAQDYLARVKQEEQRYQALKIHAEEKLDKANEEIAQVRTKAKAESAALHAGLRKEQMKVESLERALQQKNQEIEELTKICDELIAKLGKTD
row,effect of a mutation on the interaction,Variant
1,with no effect,T601S
2,disrupting interaction strength,T414A
3,disrupting interaction strength,I439V
4,with no effect,L8M
5,with no effect,R594H
6,with no effect,P592H

# Variants of: B3
# Details: with rbtn2_human LMO2, P25791
# Chain of rbtn2_human LMO2, P25791 (P25791 whole entry): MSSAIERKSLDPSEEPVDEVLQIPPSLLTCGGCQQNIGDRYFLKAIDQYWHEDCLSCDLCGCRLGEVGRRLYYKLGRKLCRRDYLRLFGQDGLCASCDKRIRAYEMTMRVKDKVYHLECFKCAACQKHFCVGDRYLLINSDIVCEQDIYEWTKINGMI
row,effect of a mutation on the interaction,Variant
1,with no effect,N267S

# Variants of: B3
# Details: with zn646_human ZNF646, O15015
# Chain of zn646_human ZNF646, O15015 (O15015 whole entry): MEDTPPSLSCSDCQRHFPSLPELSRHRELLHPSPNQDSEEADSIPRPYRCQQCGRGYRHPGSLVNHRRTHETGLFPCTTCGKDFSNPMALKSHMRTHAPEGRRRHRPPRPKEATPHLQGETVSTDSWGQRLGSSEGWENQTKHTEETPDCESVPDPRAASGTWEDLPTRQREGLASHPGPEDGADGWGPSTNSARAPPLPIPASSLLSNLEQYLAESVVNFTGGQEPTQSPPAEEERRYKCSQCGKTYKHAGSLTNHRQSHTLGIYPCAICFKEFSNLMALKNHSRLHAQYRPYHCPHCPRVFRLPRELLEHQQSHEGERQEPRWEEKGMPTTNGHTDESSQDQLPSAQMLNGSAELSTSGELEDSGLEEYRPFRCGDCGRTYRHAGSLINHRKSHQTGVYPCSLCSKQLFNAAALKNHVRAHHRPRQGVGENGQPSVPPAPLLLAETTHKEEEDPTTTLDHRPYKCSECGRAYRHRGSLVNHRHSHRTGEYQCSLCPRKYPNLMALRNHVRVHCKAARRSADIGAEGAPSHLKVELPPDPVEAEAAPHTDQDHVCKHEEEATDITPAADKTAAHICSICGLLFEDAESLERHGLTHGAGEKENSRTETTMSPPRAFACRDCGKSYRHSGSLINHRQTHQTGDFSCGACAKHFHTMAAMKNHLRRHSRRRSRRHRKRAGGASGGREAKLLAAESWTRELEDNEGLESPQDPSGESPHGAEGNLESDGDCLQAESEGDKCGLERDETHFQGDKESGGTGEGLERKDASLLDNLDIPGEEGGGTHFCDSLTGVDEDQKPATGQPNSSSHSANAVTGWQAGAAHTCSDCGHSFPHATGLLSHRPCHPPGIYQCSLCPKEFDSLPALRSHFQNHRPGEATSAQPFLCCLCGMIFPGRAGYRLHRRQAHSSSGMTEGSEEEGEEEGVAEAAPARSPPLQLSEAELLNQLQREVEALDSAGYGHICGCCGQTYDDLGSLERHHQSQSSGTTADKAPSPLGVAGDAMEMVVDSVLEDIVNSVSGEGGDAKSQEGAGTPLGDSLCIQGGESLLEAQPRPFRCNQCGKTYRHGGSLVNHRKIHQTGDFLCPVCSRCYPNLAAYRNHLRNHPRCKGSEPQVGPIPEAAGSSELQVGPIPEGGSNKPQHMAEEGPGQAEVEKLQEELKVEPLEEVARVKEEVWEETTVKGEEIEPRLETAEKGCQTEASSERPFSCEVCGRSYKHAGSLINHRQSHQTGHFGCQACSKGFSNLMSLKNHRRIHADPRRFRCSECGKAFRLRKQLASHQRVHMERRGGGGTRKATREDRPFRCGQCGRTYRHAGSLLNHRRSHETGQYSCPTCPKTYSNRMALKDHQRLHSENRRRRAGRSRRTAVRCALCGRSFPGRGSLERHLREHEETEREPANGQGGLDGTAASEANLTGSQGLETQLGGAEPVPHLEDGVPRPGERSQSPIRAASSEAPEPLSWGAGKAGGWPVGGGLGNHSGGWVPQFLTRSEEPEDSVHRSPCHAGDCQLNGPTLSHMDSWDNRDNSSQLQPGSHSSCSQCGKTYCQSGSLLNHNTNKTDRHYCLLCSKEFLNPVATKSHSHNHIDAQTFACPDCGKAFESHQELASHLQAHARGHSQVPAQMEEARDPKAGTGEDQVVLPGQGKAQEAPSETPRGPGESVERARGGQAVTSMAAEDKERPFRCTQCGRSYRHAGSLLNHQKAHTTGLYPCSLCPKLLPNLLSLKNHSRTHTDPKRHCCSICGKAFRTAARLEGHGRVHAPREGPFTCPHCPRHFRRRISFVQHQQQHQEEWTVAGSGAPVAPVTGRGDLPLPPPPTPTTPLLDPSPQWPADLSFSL
row,effect of a mutation on the interaction,Variant
1,with no effect,N267S

# Variants of: B4
# Details: with skp1_human SKP1, P63208
# Chain of skp1_human SKP1, P63208 (P63208 whole entry): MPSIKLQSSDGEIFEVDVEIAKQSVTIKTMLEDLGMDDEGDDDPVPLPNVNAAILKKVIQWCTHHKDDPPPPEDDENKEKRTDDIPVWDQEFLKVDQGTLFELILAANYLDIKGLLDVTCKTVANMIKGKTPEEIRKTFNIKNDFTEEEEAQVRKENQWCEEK
row,effect of a mutation on the interaction,Variant
1,with no effect,A703T
2,with no effect,T532S
3,with no effect,D507N

# Variants of: B5
# Details: with blk_human BLK
row,effect of a mutation on the interaction,Variant
1,with no effect,S265F
2,with no effect,A140D

# Variants of: B5
# Details: with nck2_human NCK2, O43639
# Chain of nck2_human NCK2, O43639 (O43639 whole entry): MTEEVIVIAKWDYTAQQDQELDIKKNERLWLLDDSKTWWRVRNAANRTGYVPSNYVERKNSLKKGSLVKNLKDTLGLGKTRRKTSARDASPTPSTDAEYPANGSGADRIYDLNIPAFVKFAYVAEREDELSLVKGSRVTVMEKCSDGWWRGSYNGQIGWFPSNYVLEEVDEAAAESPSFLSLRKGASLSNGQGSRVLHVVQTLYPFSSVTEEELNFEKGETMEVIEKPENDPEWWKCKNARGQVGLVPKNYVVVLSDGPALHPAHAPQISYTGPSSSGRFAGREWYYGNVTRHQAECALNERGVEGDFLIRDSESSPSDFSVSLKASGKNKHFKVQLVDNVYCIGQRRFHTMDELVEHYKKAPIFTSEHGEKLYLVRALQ
row,effect of a mutation on the interaction,Variant
1,with no effect,S265F
2,with no effect,A140D

# Variants of: B5
# Details: with abi2_human ABI2, Q9NYB9
# Chain of abi2_human ABI2, Q9NYB9 (Q9NYB9 whole entry): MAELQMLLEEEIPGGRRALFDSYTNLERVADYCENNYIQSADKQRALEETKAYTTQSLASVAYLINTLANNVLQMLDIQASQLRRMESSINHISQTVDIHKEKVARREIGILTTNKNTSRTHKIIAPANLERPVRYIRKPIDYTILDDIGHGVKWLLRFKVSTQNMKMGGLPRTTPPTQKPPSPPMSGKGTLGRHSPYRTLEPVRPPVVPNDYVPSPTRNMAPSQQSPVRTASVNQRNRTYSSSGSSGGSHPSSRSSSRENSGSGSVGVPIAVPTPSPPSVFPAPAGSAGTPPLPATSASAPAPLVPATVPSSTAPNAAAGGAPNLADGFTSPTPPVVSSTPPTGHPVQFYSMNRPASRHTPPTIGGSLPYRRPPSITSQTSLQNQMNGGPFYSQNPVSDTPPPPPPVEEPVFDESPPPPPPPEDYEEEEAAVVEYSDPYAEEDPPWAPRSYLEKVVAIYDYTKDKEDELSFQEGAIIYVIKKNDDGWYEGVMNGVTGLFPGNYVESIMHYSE
row,effect of a mutation on the interaction,Variant
1,with no effect,S265F
2,with no effect,A140D

# Variants of: B5
# Details: with fyn_human FYN
row,effect of a mutation on the interaction,Variant
1,with no effect,S265F
2,with no effect,A140D

# Variants of: B6
# Details: with lsm5_human LSM5, Q9Y4Y9
# Chain of lsm5_human LSM5, Q9Y4Y9 (Q9Y4Y9 whole entry): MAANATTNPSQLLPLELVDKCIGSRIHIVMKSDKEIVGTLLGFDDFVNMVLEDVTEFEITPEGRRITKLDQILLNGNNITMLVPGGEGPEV
row,effect of a mutation on the interaction,Variant
1,with no effect,G78A

# Variants of: B7
# Details: with med20_human MED20, Q9H944
row,effect of a mutation on the interaction,Variant
1,with no effect,M19V

# Variants of: B8
# Details: with creb3_human CREB3, O43889
row,effect of a mutation on the interaction,Variant
1,with no effect,A293T

# Reference: IntAct's records for PubMed 31515488
